The record followed here is patent US20060239990A1, “Protein Arginine N-Methyltransferase 2 (PRMT-2)” (priority 2003, published 2006).

One assay concerns 293 cells. Description: TNF-α-induced apoptosis in transfected 293 cells. Type of assay: cell-based, human. Conditions: TNF-α 1000 U/ml 24 hours. The method, then: Apoptosis analysis. Apoptosis in PRMT-2-expressing 293 cells was analyzed as follows. Cells were seeded at 2.5×10^5 per well in 6 well plates. The next day, empty vector, mutant IκBα (S32A/S36A), RelA or PRMT-2 was co-transfected with CD2 expression vector. Twenty-four hours after transfection cells were stimulated with TNF-α (1000 U/ml) for 24 hours. Both floating and attached cells in each well were harvested by EDTA treatment. Cells were stained with APC-labeled anti-CD2 antibody (BD Bioscience) in SM buffer (PBS containing 2% FCS). After washing twice with PBS, cells were stained with FITC-labeled Annexin V and propidium iodide using Annexin V FITC Apoptosis Detection Kit (Oncogene), and analyzed by flow cytometry (FACS Caliber, BD Bioscience).

In the next assay the test system is IκB-α. Description: Immunoblot of nuclear IκB-α in transfected 293 cells. It is filed as cell-based, human. Conditions: transfected cells stimulated with TNF-α, vs PRMT2-N. The method, then:
Small-scale preparation of nuclear extracts. A modified Dignam procedure (Dignam et al., Nucleic Acids Res. 11: 1475-89 (1983)) was used to prepare nuclear extracts from 293 cells. Cells were harvested, washed with PBS, resuspended in 1 ml Dignam buffer A, and transferred to pre-chilled microfuge tubes, which were spun at 1000 rpm for 1 minute. The supernatant was aspirated thoroughly, and pellets were carefully resuspended to avoid frothing, in 60 μl modified Dignam buffer A containing 0.1% Nonidet P-40 (NP40). Samples were incubated at 4° C. for approximately 10 minutes, and microcentrifuged for 10 minutes at 4° C. The cytoplasmic extract supernatant was diluted in 3 volumes of modified Dignam buffer D and frozen quickly. The pellets were resuspended in 40 μl Dignam buffer C. Samples were incubated for 15 minutes at 4° C. on a tumbler, and centrifuged again for 5 minutes at 4° C. The supernatant was diluted with 6 volumes of modified Dignam buffer D. Samples were frozen quickly in aliquots and stored at −70° C.
Western Blotting. Proteins resolved by SDS-polyacrylamide gel electrophoresis (PAGE) were transferred to polyvinylidene difluoride (PVDF) membranes. […]

The test system of another assay is p50/p65 complex. Briefly: NF-κB DNA binding assay (EMSA). It is filed as biochemical, human. Conditions: 293 cells cotransfected with p50 and p65 expression vectors. How it is done:
DNA binding assay. Electrophoretic mobility shift assays (EMSAs) were conducted on 10 μg of nuclear extract protein from 293 cells transiently transfected with pRSV p50/p65 expression constructs and pVR1012 PRMT-2-A/PRMT-2-N expression constructs. A modified Dignam procedure (Dignam et al. Nucleic Acids Res. 11, 1475-1489 (1983)) was used to prepare nuclear extracts from 293 cells. Perkins, N. D. et al. Science 275, 523-527 (1997). NF-KB DNA binding was assayed using a double-stranded 32P-labeled κB probe (Geneka Biotechnology). DNA binding assays were performed as described previously. Perkins et al. Science 275, 523-527 (1997). Supershifting was done using NF-κB p65 (C-20) and NF-κB p50 (H-119) (Santa Cruz). GST-PRMT-2-A fusion proteins were expressed in BL21 (DE3) cells and extracts were prepared as described previously. Smith, D. B. & Johnson, K. S. Gene 67, 31-40 (1988).

The test system of the next assay is MHC Class I. Description: Flow cytometry of endogenous MHC Class I in 293T cells. Conditions: 48 hrs after transfection. It is filed as cell-based, human. How it is done:
293 cells were transfected with 1 μg of the indicated reporter plasmids and 5 μg of either PRMT2-A or pVR1012 plasmids. Cells were harvested 36 hours post-transfection, and CAT assays were performed. Data shown are the mean (±SEM)-fold inhibition, in the presence of PRMT2-A, over a vector control of 3 independent experiments. […] 293T human embryonic kidney cells were transfected with HIV-luciferase reporter (WT) or ΔκB-luciferase reporter (ΔκB) and PRMT2 or control vector plasmid. 24 hrs after transfection, cells were treated with vehicle (left panel) or with TNF-α (20 ng/ml; middle panel) or PMA (10 ng/ml; right panel) as indicated, and luciferase activity was measured 48 hrs post transfection. […] 293T cells were transfected with HA-PRMT2 or HA-PRMT2-N. Transfected cells were detached after 48 hrs and analyzed by flow cytometry for MHC Class I and CD9 in HA-positive cells in PRMT2 (FIG. 2C) or PRMT2-N (FIG. 2D) transfected cells. […] 293T cells were transfected with plasmids as indicated where IKK2 or p65 was added as shown, and the κB luciferase reporter gene was used to monitor NF-κB activity 48 hrs after transfection. Values are expressed as fold stimulation compared to the control vector.
(A flow cytometer gives signals particle by particle.)

B1: PRMT2: human PRMT-2 polypeptide, SEQ ID NO:2, expressed from pVR1012 vector with HA-tag (protein, listed as Homo sapiens)
chain: MATSGDCPRSESQGEEPAECSEAGLLQEGVQPEEFVAIADYAATDETQLSFLRGEKILILRQTTADWWWGERAGCCGYIPANHVGKHVDEYDPEDTWQDEEYFGSYGTLKLHLEMLADQPRTTKYHSVILQNKESLTDKVILDVGCGTGIISLFCAHYARPRAVYAVEASEMAQHTGQLVLQNGFADIITVYQQKVEDVVLPEKVDVLVSEWMGTCLLFEFMIESILYARDAWLKEDGVIWPTMAALHLVPCSADKDYRSKVLFWDNAYEFNLSALKSLAVKEFFSKPKYNHILKPEDCLSEPCTILQLDMRTVQISDLETLRGELRFDIRKAGTLHGFTAWFSVHFQSLQEGQPPQVLSTGPFHPTTHWKQTLFMMDDPVPVHTGDVVTGSVVLQRNPVWRRHMSVALSWAVTSRQDPTSQKVGEKVFPIWR
modifications: HA tag
As to B1, the “susceptibility to TNF-induced cell death” value with 293 cells is “increased their susceptibility to TNF-induced cell death”. The “increase in nuclear IκB-α protein levels over the mutant control” value in the assay with IκB-α is about 8 fold. The “NF-κB DNA binding in nuclear extracts of transfected cells” value in the assay with p50/p65 complex is “inhibited DNA binding of the p50/p65 complex in a dose-dependent manner”. Further, the “endogenous MHC Class I cell surface expression” value in the assay with MHC Class I was “decreased endogenous MHC Class I cell surface expression”.
